Measured values as given in patent publication US11325966.

Experiments:
Experiment in all cases: cell-based or functional assay
[1] = target: HIV-1 envelope (Env) of pseudovirus 1394C9G1 (Rev-) (HIV-1)
[2] = target: HIV-1 envelope (Env) of pseudovirus TRJO4551.58 (HIV-1)
[3] = target: HIV-1 envelope (Env) of pseudovirus CAP45.2.00.G3 (HIV-1)
[4] = target: HIV-1 envelope (Env) of pseudovirus PVO.4 (HIV-1)
[5] = target: HIV-1 envelope (Env) of pseudovirus TRO.11 (HIV-1)
[6] = target: HIV-1 envelope (Env) of pseudovirus Ce2060_G9 (HIV-1)
JR-CSF N301A (HIV-1) = JR-CSF N301A (HIV-1) (UniProt P20871)
[7] = target: HIV-1 Env of pseudovirus 231966.c02 (HIV-1)
[8] = target: HIV-1 Env of pseudovirus CNE8 (HIV-1)
[9] = target: HIV-1 Env of pseudovirus 6540.v4.c1 (HIV-1)
[10] = target: HIV-1 Env of pseudovirus ZM247v1(Rev-) (HIV-1)
[11] = target: HIV-1 Env of pseudovirus CNE52 (HIV-1)
[12] = target: HIV-1 Env of pseudovirus 7030102001E5(Rev-) (HIV-1)
[13] = target: HIV-1 Env of pseudovirus 191084 B7-19 (HIV-1)
[14] = target: HIV-1 Env of pseudovirus R1166.c01 (HIV-1)
[15] = target: HIV-1 Env of pseudovirus ZM135M.PE10a (HIV-1)
[16] = target: HIV-1 Env of pseudovirus QH0692.42 (HIV-1)
[17] = target: HIV-1 Env of pseudovirus Du172.17 (HIV-1)
[18] = target: HIV-1 Env of pseudovirus CAP45.2.00.G3 (HIV-1)
[19] = target: HIV-1 Env of pseudovirus CNE17 (HIV-1)
[20] = target: HIV-1 Env of pseudovirus C3347.c11 (HIV-1)
[21] = target: HIV-1 Env of pseudovirus 263-8 (HIV-1)
[22] = target: HIV-1 Env of pseudovirus 1006_11_C3_1601 (HIV-1)
[23] = target: HIV-1 Env of pseudovirus 62357_14_D3_4589 (HIV-1)
[24] = target: HIV-1 Env of pseudovirus Q842.d12 (HIV-1)
[25] = target: HIV-1 Env of pseudovirus R3265.c06 (HIV-1)
[26] = target: HIV-1 Env of pseudovirus CNE21 (HIV-1)
[27] = target: HIV-1 Env of pseudovirus X1254_c3 (HIV-1)
[28] = target: HIV-1 Env of pseudovirus 6480.v4.c25 (HIV-1)
[29] = target: HIV-1 Env of pseudovirus 1394C9G1(Rev-) (HIV-1)
[30] = target: HIV-1 Env of pseudovirus BJOX009000.02.4 (HIV-1)
[31] = target: HIV-1 Env of pseudovirus TRJO4551.58 (HIV-1)
[32] = target: HIV-1 Env of pseudovirus Ce0682_E4 (HIV-1)
[33] = target: HIV-1 Env of pseudovirus 191955_A11 (HIV-1)
[34] = target: HIV-1 Env of pseudovirus WEAU_d15_410_787 (HIV-1)
[35] = target: HIV-1 Env of pseudovirus R2184.c04 (HIV-1)
[36] = target: HIV-1 Env of pseudovirus 6244_13_B5_4576 (HIV-1)
[37] = target: HIV-1 Env of pseudovirus C2101.c01 (HIV-1)
[38] = target: HIV-1 Env of pseudovirus SC05_8C11_2344 (HIV-1)

In the case of BG1 (antibody), the IC50 in TZM-bl assay [1] is reported as 1.28 mg/L, the IC80 in TZM-bl assay [1] is reported as 7.25 mg/L and the IC50 in TZM-bl assay [2] is reported as over 30 mg/L. It also gave an IC80 in TZM-bl assay [2] of over 30 mg/L, an IC50 in TZM-bl assay [3] of 0.149 mg/L and an IC80 in TZM-bl assay [3] of 0.383 mg/L. It also gave an IC50 in TZM-bl assay [4] of over 30 mg/L, an IC80 in TZM-bl assay [4] of over 30 mg/L and an IC50 in TZM-bl assay [5] of over 30 mg/L. It also gave an IC80 in TZM-bl assay [5] of over 30 mg/L, an IC50 in TZM-bl assay [6] of over 30 mg/L and an IC80 in TZM-bl assay [6] of over 30 mg/L.

In the case of 354BG8 (antibody), the IC50 in TZM-bl assay (JR-CSF N301A (HIV-1)) is reported as 0.006 mg/L.

B1: 10-1074 (antibody, V domains shown)
VH: QVQLQESGPGLVKPSETLSVTCSVSGDSMNNYYWTWIRQSPGKGLEWIGYISDRESATYNPSLNSRVVISRDTSKNQLSLKLNSVTPADTAVYYCATARRGQRIYGVVSFGEFFYYYSMDVWGKGTTVTVSS
VL: SYVRPLSVALGETARISCGRQALGSRAVQWYQHRPGQAPILLIYNNQDRPSGIPERFSGTPDINFGTRATLTISGVEAGDEADYYCHMWDSRSGFSWSFGGATRLTVL
In the case of B1, the IC50 in TZM-bl assay [7] is reported as over 10 mg/L, the IC80 in TZM-bl assay [7] is reported as over 10 mg/L and the IC50 in TZM-bl assay [8] is reported as over 10 mg/L. For the same molecule, the IC80 in TZM-bl assay [8] was over 10 mg/L, the IC50 in TZM-bl assay [9] was over 10 mg/L and the IC80 in TZM-bl assay [9] was over 10 mg/L. It also gave an IC50 in TZM-bl assay [10] of 0.042 mg/L, an IC80 in TZM-bl assay [10] of 0.146 mg/L and an IC50 in TZM-bl assay [11] of 1.99 mg/L. It also gave an IC80 in TZM-bl assay [11] of 9.76 mg/L, an IC50 in TZM-bl assay [12] of 0.009 mg/L and an IC80 in TZM-bl assay [12] of 0.019 mg/L. It also gave an IC50 in TZM-bl assay [13] of 0.026 mg/L, an IC80 in TZM-bl assay [13] of 0.108 mg/L and an IC50 in TZM-bl assay [14] of over 10 mg/L. For the same molecule, the IC80 in TZM-bl assay [14] was over 10 mg/L, the IC50 in TZM-bl assay [15] was 0.061 mg/L and the IC80 in TZM-bl assay [15] was 0.263 mg/L. The IC50 in TZM-bl assay [16] was 0.106 mg/L, the IC80 in TZM-bl assay [16] was 0.383 mg/L and the IC50 in TZM-bl assay [17] was 0.049 mg/L. For the same molecule, the IC80 in TZM-bl assay [17] was 0.194 mg/L, the IC50 in TZM-bl assay [18] was over 10 mg/L and the IC80 in TZM-bl assay [18] was over 10 mg/L. For the same molecule, the IC50 in TZM-bl assay [19] was 1.18 mg/L, the IC80 in TZM-bl assay [19] was 4.85 mg/L and the IC50 in TZM-bl assay [20] was over 10 mg/L. For the same molecule, the IC80 in TZM-bl assay [20] was over 10 mg/L, the IC50 in TZM-bl assay [21] was 0.416 mg/L and the IC80 in TZM-bl assay [21] was 5.71 mg/L. For the same molecule, the IC50 in TZM-bl assay [22] was 0.002 mg/L, the IC80 in TZM-bl assay [22] was 0.006 mg/L and the IC50 in TZM-bl assay [23] was over 10 mg/L. For the same molecule, the IC80 in TZM-bl assay [23] was over 10 mg/L, the IC50 in TZM-bl assay [24] was over 10 mg/L and the IC80 in TZM-bl assay [24] was over 10 mg/L. For the same molecule, the IC50 in TZM-bl assay [25] was over 10 mg/L, the IC80 in TZM-bl assay [25] was over 10 mg/L and the IC50 in TZM-bl assay [26] was 0.047 mg/L. For the same molecule, the IC80 in TZM-bl assay [26] was 0.124 mg/L, the IC50 in TZM-bl assay [27] was 0.063 mg/L and the IC80 in TZM-bl assay [27] was 0.239 mg/L. The IC50 in TZM-bl assay [28] was 0.006 mg/L, the IC80 in TZM-bl assay [28] was 0.023 mg/L and the IC50 in TZM-bl assay [29] was 0.031 mg/L. For the same molecule, the IC80 in TZM-bl assay [29] was 0.093 mg/L, the IC50 in TZM-bl assay [30] was over 10 mg/L and the IC80 in TZM-bl assay [30] was over 10 mg/L. For the same molecule, the IC50 in TZM-bl assay [31] was 0.057 mg/L, the IC80 in TZM-bl assay [31] was 0.218 mg/L and the IC50 in TZM-bl assay [32] was over 10 mg/L. It also gave an IC80 in TZM-bl assay [32] of over 10 mg/L, an IC50 in TZM-bl assay [33] of over 10 mg/L and an IC80 in TZM-bl assay [33] of over 10 mg/L. It also gave an IC50 in TZM-bl assay [34] of 0.031 mg/L, an IC80 in TZM-bl assay [34] of 0.112 mg/L and an IC50 in TZM-bl assay [35] of over 10 mg/L. For the same molecule, the IC80 in TZM-bl assay [35] was over 10 mg/L, the IC50 in TZM-bl assay [36] was 0.091 mg/L and the IC80 in TZM-bl assay [36] was 0.38 mg/L. For the same molecule, the IC50 in TZM-bl assay [37] was over 10 mg/L, the IC80 in TZM-bl assay [37] was over 10 mg/L and the IC50 in TZM-bl assay [38] was 0.017 mg/L. For the same molecule, the IC80 in TZM-bl assay [38] was 0.048 mg/L.
